Assay results published in PMC7497679, “Structure-based design, synthesis, and evaluation of the biological activity of novel phosphoroorganic small molecule IAP antagonists” (Investigational New Drugs, 2020).
Square brackets hold non-standard residues; d marks the D form. 5(6)‑Fam = 5(6)-carboxyfluorescein; Dpm = not defined here

Biological target: T1, X-linked inhibitor of apoptosis protein (XIAP) BIR3 domain (human)
T1 construct: Neither the catalogue number, the construct limits nor the tags of the Sino Biological protein are stated; also called XIAP BIR3 protein; source: bought: Sino Biological, Beijing, China
Test: fluorescence polarisation; direct binding: two-fold serial dilutions of XIAP BIR3 domain (2.5 µM to 0.0763 nM) incubated 30 min with probe 4 (2 nM); r.t.; phosphate buffer pH 7.5 with γ-globulin 100 µg/mL and NaN3 0.02%; one site - total binding model
Conditions: both partners purified

B1: fluorescent probe H2N-Ala-Val-Pro-Dpm-Ala-Lys(5(6)-Fam)-Lys-NH2 (4) (peptide)
chain: H-AVP[Dpm]AK(5(6)‑Fam)K-NH2
modifications: reading uncertain; also: printed as H2N-Ala-Val-Pro-Dpm-Ala-Lys(5(6)-Fam)-Lys-NH2
**Q.** With B1 as the binder, how does the Kd read?
**A.** 49.9 ± 5.37 nM
